US20230417748A1
Several values for one entry are separate records, joined by “and”; a condition that tells them apart may be missing. Equal entries are not always repeated.

B1: clone 5E9 (antibody, V domains shown)
VH: EVQLVESGGGLVQPGGSLRLSCAASGFTFTTYDMGWVRQAPGKGPEWVSLISSGGSNTWYDDSVKGRFTISRDNSKNTLYLQMNSLRAEDTAVYYCAKEKYPYSDCDYWGQGTLVTVSS
B2: clone 6D9 (antibody, V domains shown)
VH: EVQLVESGGGLVQPGGSLRLSCAASGFTFTDYDMGWVRQAPGKGPEWVSLISGDSGNTWYDDSVKGRFTISRDNSKNTLYLQMNSLRAEDTAVYYCAKYRGTTKDYWGQGTLVTVSS

Biological target: SARS-CoV-2 (2019-nCoV) Spike Protein (S1+S2 ECD, His tag) (Sino Biological, 40589-V08B1) (SARS-CoV-2), P0DTC2
Conditions: remark: other sources report otherwise

Row | Binder | O.D.
1 | B1 | 0.892 O.D. and 0.904 O.D.
2 | B2 | 0.997 O.D. and 0.991 O.D.
